Protein production data for 18 sequences are collected here from a protein production outcome set (Wang et al. 2014).

The data set in a line: label from the status in PepcDB records.
Regarding “MSFSRHIGVTMIDVVDLSRLQFALTAMYHFLFVPLTLGMAFLLAIMESMYVMTNKQIYKDMTKFWGKLFGINFALGVATGLTMEFQFGTNWSYYSHYVGDIFGAPLAIEALVAFFLESTFVGLFFFGWDRLSKRQHLAVTWLVALGSNFSALWILIANGWMQNPVGADFNFETMRMEMVSFSEVVLNPVAQVKFVHTVASGYTCGAMFILGISSYYLLKGRDIAFARRSFAIAASFGIAAILSTIVLGDESGYELGEVQKVKLAAIEAEWHTEPAPAAFTLFGVPNQETMHTDYAIKIPYVMGIIATRSFDEQVTGLRDLRDEHVERIRGGMYAYELLEKLRAGDKSEENMTAFDEVKGDLGYGLLLKRYTDNVVDATEEQIQAAADDSIPTVWPLFWSFRIMVACGFIMLFVFGAAFIQTCRQKIEQKQWILKAALLSIPLPWIAIEAGWFVAEYGRQPWAVGEILPVHVAASALTAGEIWTSLFAILALYTVFLIAEVYLMLKFARKGPSSLKTGRYHFEQNADSVEDKVSRQVEA”, the protein production result was “failed”.

For “MADLRLEREFAVAPEALFAWVSDGAKLLQWWGPEGLHVPADQHDLDFTRLGPWFSVMVNGEGQRYKVSGQVTHVKPPQSVGFTWGWHDDDDRRGAESHVMFIVEPCAKGARLILDHRELGDDEMSLRHEEGWTSSLRKLAAELALEHHHHHH”, the protein production result is listed as “not failed”.

For “MVIRVTERRVKLASIISYDFLFLVLLSGLLNLIITIFRERLLYVLSSFFQYIVSNPSVALGDALGFIFVLQALLLGLFIGGIVILSISFTINLTRIRSEYEEGVPLSTILRSRIITSSRLGIIANWISERSKRYINASADLESPTEVGVRYVAYFLVSLLVVIPVSLALSIALLSPLPFLLIFFPLTFIFYPEQKYKSRAREIRDDIQDEIPFFVTLITIINASGTTIYEGMRKILQFPIFKAMKKEALLIIRDIEFFGKSPLDALEHRSRLTLNRDYSWFLAGYSSIIRSGGDIEAYLFQKAREFLNWLQFRWRFYSERTSFLGELIVILFLIFPMFLIALAFFTSGAVISFLLIIPILFGTILYTITANNRPRYMDSIGLTKLQLLIGFIAALLTAGVIEIFLDEIYYAIGLGLLSFSLASTIFMYNQIREINDVENSLPQFLRDITEFRKIGYDLSRAIKTLAEEKRYRREFNRVLNEITKQDSMGIPITRAKINTRSWLGKFSLTTVQILIESGAVRPDLLEYLTEFTLNFIQSKKEAFSRMRAYQVLGILTPLLLIATILIAIVIIDSFTIVTLPTNTVGLPQFPNIISQFILSPVILAEMFIFILMSTFAIGLLVTKALYGTVQYMIMPAIGLTLAVLSIHFFSVIEPIILKFFSI”, the protein production entry is recorded as “failed”.

Consider “AKLMNRFSTTKLNPLIGSAGVSAVPMAARVSNKVGLEANAQNFLLMHAMGPNVAGVIGSAVAAGVMIKYVMG”, for which the protein production result is recorded as “failed”.

Consider “MMAERPQPVAAPEEDEIDLGQLLGQIWHGKLWIGSATLAAGMLGLAWLANTAPTYRADTLLQLEEKASPLALPTALSELAGGEARSATEVEILRSRLVLGEAVAAFHLDWEAKPLRAPLVGQAVASGVLPLPEVEGLIRYDRGDSRIRLDLLEVPPEWVEEPILLTAMGEGQFALLLPDGREETGEVGRPLAVPDRGFGLRIGALEGVRGRQFVIRQLDETGAIGALRDRLTVAERGKQSSILEVGLTGRDPAEVQRTLGGIAEAYLRQNMTRSAAEAESSLEFIEGQLPEAQKAVRAAEDRLNAYRQAQQAIDLGFEGQSLLTQISAIETELRQLADQEEEIANRYTSNHPTYQRLLAMRGRLEERLAALRKEVSNLPETQREVFNFTRDLEVAQEVYLQLLNRAQELRVVKASTIGNVRIVDGARTAPEPVAPRRGRTLALALLLGALSGTGLVLGRAWLRRSVRGPEELDRLGLPVFATVLFAPAAVGNRKGRGLLPILALSDPNSATVEGIRSLRTSLHFGMLDAGSRSIALTSSAPAAGKSFTSVNLAVVAAQAGQSVCLIDADLRRGHLRRYFAVAKGTPGLAEYLAGEAELDELLRPGPVEGLAFLSTGQLPPNPSELLMRPRLAELVAELDRRFDLSIFDAPPVLAVTDPVVIGRAVGATIAVVRHDVTGLGEVEALIRQLQGAGVKPAGAVLNAYRPQRGSGRYGYGYGYRYRYDTGYRPQSGD”, for which the protein production result is “failed”.

As for “MRREKTMDTLIRSIMIKSKRKMDAKVAQFGLTTQQARVLGFLNDNAANEIIQKDLQRIFQTRGASITSLIQGLEKKQLISRKPSIRDGREKVVTLTEEGKRIVDEFNESFPREDDKAKKILSADEYKIFIDLLSKIDDNTELEHHHHHH”, the protein production entry is recorded as “not failed”.

“MPLRCTKPLGATPATPTAPPTGRKGHQVAINGFITWILVTMSLVVYFLWAFIPTSFLDMVLASYYPDKYWAVAIPAILVMTMVYYLTVHFLLMLYRTDPLTDGFCVAQTNGAVRHESIENLVDVEDGVPPITDIPVSVASRLLFQPWN”: the protein production result is reported as “failed”.

Regarding “MSEKFDCHYCRDPLQGKKYVQKDGRHCCLKCFDKFCANTCVDCRKPISADAKEVHYKNRYWHDNCFRCAKCLHPLASETFVSKDGKILCNKCATREDSPRCKGCFKAIVAGDQNVEYKGTVWHKDCFTCSNCKQVIGTGSFFPKGEDFYCVTCHETKFAKHCVKCNKAITSGGITYQDQPWHAECFVCVTCSKKLAGQRFTAVEDQYYCVDCYKNFVAKKCAGCKNPITGKRTVSRVSHPVSKARKSPVCHGKRLPLTLFPSANLRGRHPGGERTCPSWVVVLYRKNRSLAAPRGPGLVKAPVWWPMKDNPGTTTASTAKNAP”, the protein production entry is reported as “failed”.

“MKEPPMTKTVFHLGVTEADLNGATLAIIPGDPARVQKIAELMDNPVFLASHREYTVYRAELDGQSVVVCSTGIGGPSTSIAVEELAQLGVRTFLRVGTTGAIQPHVNVGDMIVTTGSVRLDGASLHFAPMEFPAVPDFDVATAMKAAAQESGATVHMGVTASSDTFYPGQERYDTFTGRVVRRFQGSMKEWQDMGVLNFEMESATLLTMCASSGLKAGCVAGVIINRTQKEIPDHATLKETEARSIKVVVEAARKMLK”: the protein production result is on record as “not failed”.

As to “MSDAQKFQLGTIGALSLSVVSSVSIVICNKALISTLGFTFATTLTSWHLLVTFCSLHVALWMKFFEHKPFDPRAVLGFGVLNVNFSTFLVIGKTSPVTYQVLGHLKTCLVLAFGYLLLKDAFSWRNILGILVAVIGMVLYSYYCTLETQQKATETSTQLPQMDENEKDPLVSAENGSGLISDNGVQKQDPVWNSNKDFQA”, the protein production result was “failed”.

On to “MDVLIFNSWHWWTHTSGLQPWDYMREGNQLYKDMNRLVAYYKGLNTWARWINNNIVPSRTQVFFQGVSPVHYDGREWNEPLKSCNGQTQPFMGQRYPGGLPLGWVVVNKVLSRIRKPVHLLDLTTLSEYRKDAHPSLYNGISKDLDCSHWCLPGLPDTWNLLLYSSLTS”, for which the protein production entry is listed as “failed”.

Regarding “MSETDTAWIETALTSARPQAVGALLRYFRDLDTAEEAFQNACLRALKTWPQNGPPRDPAAWLIMVGRNVAIDEVRRARKQQPLPEDDQAISDLDDAEGALAERLDGSHYRDDILRLMFICCHPQLPATQQIALALRIVSGLTVKQIARAFLVSEAAMEQRITRAKAKVAEAGTPFETPGPIERSERLAGVAAMIYLIFNEGYSASGDTAEIRKPLCEEAIRLARLLLRLFQSEPEIMGLAALLLLQHARSAARFADDGSLILLEDQDRSLWNGSMIAEGLALIDKAMRHRRSGPYQIQAAIAALHARAATPEETDWAQIDLLYGALELAQPSPVVTLNRAVAVSKVRGPQAALDLIEPLAPKLGNYFHFHGVRGAFLMQLGRNDEARIAFDRAIALANTSAEAAHIRMHIDRLIRDSQPKSSNGSARQGAKAK”, the protein production result was “failed”.

For the sequence “MGLPSSLESYLLLILLSFLNVSTIYSSKPSKEEAVLFGGNFPAFYVIGDSLVDPGNNNHLPTMIRANYPPYGSDFEGGKATGRFSNGKTIADYIAIYYKLPLVPAYLGLSDDRKDTISTGMNYASAGCGIRRLTGKIAGKCLSLSKQVDLFEETIEKHLKTNFKTPYELREHLAHSLFMTVIGVNDYAFFYTRLTDANDFADELLHKFLKKIEKLHKLGARKFFINNIKPLGCYPNIVAKTVPRGSRRTYKPCYKHLQRKA”, the protein production result is listed as “failed”.

Regarding “MGHHHHHHSHMATGQDRVVALVDMDCFFVQVEQRQNPHLRNKPCAVVQYKSWKGGGIIAVSYEARAFGVTRSMWADDAKKLCPDLLLAQVRESRGKANLTKYREASVEVMEIMSRFAVIERASIDEAYVDLTSAVQERLQKLQGQPISADLLPSTYIEGLPQGPTTAEETVQKEGMRKQGLFQWLDSLQIDNLTSPDLQLTVGAVIVEEMRAAIERETGFQCSAGISHNKVLAKLACGLNKPNRQTLVSHGSVPQLFSQMPIRKIRSLGGKLGASVIEILGIEYMGELTQFTESQLQSHFGEKNGSWLYAMCRGIEHDPVKPRQLP”, the protein production entry was “not failed”.

As for “MSNHEEKKQHVALSSVAASLLLTAMKLVVGLMTGSIGILSEAAHSAIDFGAAALTWFAVRISDKPADKKHHYGHTKIESVSALIETGLLILTSVWIIYEAVTRLLSGTTEIEVTWYAIAVIIISIIVDISRASALKKVAKETKSQALEADALHFTSDIVSSAVVLAGLGFVALGMHWADAVAGIFVAVLVGKAAWELGRKTIDVLIDTAPEGLSEQIEEIVVNAPGVIGINKMRIKPAGGPFVFIDLTISVSRTLPQEKVVAICAGVEQRLKAALPDSDITVNARPVVLDSETVTERIHTIGLNHGLHAHNILTSLSGDHKQITFDVEVDSRLTIRQAHDAVTELENELHREFNEEIDLCIHLDPINSEERNVQPADPENEARITALIRQAASTIPGILNVHALKIHVLSYNKLCITLHCGFDDNTVLADVHPLTSRLECLIYRDIPETSRIIVHAEPVNAGD”, the protein production entry is “failed”.

On to “DMLLVDEMKRGMAQGNASGKHLIILHTKGSHFNYTQRYPRSFAQWKPECVGVDNKCSKAELINSYDNSVTYVDHFIVSVLDQLRDKKAIVFYAADHGESINEREHLHGTPRKMAPPEQFRVPMMVWMSDKYLENPDHAAAFAHLQQQAAMKVPRRHVELYDTIMGCLGYTSPDGGINENNNWCRWKK”, for which the protein production result is listed as “failed”.

As to “MPLVSMKEMLNKALEGKYAVGQFNMNNLEWTQAILAAAEEEKSPVILGVSEGAARHMTGFKTVVAMVKALIEEMNITVPVAIHLDHGSSFEKCKEAIDAGFTSVMIDASHHPFEENVETTKKVVEYAHARNVSVEAELGTVGGQEDDVIAEGVIYADPAECKHLVEATGIDCLAPALGSVHGPYKGEPNLGFAEMEQVRDFTGVPLVLHGGTGIPTADIEKAISLGTSKINVNTENQIEFTKAVREVLNKDQEVYDPRKFIGPGRDAIKATVIGKIREFGSNGKA”, the protein production entry was “not failed”.

On to “MSSRKIGLNLVVIVALAALFTGIWALYNRPVSVPDWPERISGFSFSPFRLNQNPQSGRYPSAEQMRTDLELVARHTHSIRTYSVQGALGDIPALAEAFGLRVSLGIWLGPDLASNEAEIARAIRIANESPSVVRVIVGNEALFRREVTAEQLIAYLDRVRAAVKVPVTTAEQWHVYREHPELAQHVDLIAAHVLPYWEATPVADAVDFVLERARELKAAFPRKPLLLAEVGWPSNGRMRGSAEATPADQAIYLRRLTNALNGEGYSYFVIEAFDQPWKVSAEGSVGAYWGVYNADRKAKFNFTGPVVPIPKWRALAIASAVLAVLAFTLLLIDSSSLRQRGRTFLAVVSFACASVLVWIAYDYSQQYSTWFSLTVGALLGVGALGVVIVLFTEAHELAEAVWTRKRRRPFLPITAARAYRPKVSIHVPCYNEPPELLKQTLDALARLDYPDYEVLVIDNNTRDPAVWQPVEAHCARLGERFRFFHVAPLEGFKAGALNFALGHVAADVEVVAVIDADYCVDPDWLRHMVPHFGDPRIAVVQSPQDYRDQHESAFKRLCYAEYKGFFHIGMVTRNDRDAIIEHGTMTMIRRSVLDELRWPEWCITEDAELGLRVFEKGLSAAYFERSYGKGVMPDTFIDFKKQRFRWAYGAIQIMKRHTDALLRGRGPDGSRLTRGQRYHFVAGWLPWIADGLNIFFTLGALLWSAAMIIVPKRVDPPLLIFAILPLALFVFKVGKILFLYRRTVGVDLRDSFFAALAGLSLSHTIAKAVLYGFVTRGIPFFRTPKMRSSHGLLVALAEAREEVFVMLLLWGAAAGIVAVQGVPSRDLLIWVAMLLVQSLPYLAALVMALLSSLPKPREELAGGAEQIGG”, for which the protein production result is recorded as “failed”.
